B1: mouse CD4, wild type [mouse] / Lck (Src kinase) [mouse (endogenous in 58α−β− T cell hybridoma)] (parent)
chain 1: KTLVLGKEGESAELPCESSQKKITVFTWKFSDQRKILGQHGKGVLIRGGSPSQFDRFDSKKGAWEKGSFPLIINKLKMEDSQTYICELENRKEEVELWVFKVTFSPGTSLLQGQSLTLTLDSNSKVSNPLTECKHKKGKVVSGSKVLSMSNLRVQDSDFWNCTVTLDQKKNWFGMTLSVLGFQSTAITAYKSEGESAEFSFPLNFAEENGWGELMWKAEKDSFFQPWISFSIKNKEVSVQKSTKDLKLQLKETLPLTLKIPQVSLQFAGSGNLTLTLDKGTLHQEVNLVVMKVAQLNNTLTCEVMGPTSPKMRLTLKQENQEARVSEEQKVVQVVAPETGLWQCLLSEGDKVKMDSRIQVLSRGVNQTVFLACVLGGSFGFLGFLGLCILCCVRCRHQQRQAARMSQIKRLLSEKKTCQCPHRMQKSHNLI
chain 2: MGCVCSSNPEDDWMENIDVCENCHYPIVPLDSKISLPIRNGSEVRDPLVTYEGSLPPASPLQDNLVIALHSYEPSHDGDLGFEKGEQLRILEQSGEWWKAQSLTTGQEGFIPFNFVAKANSLEPEPWFFKNLSRKDAERQLLAPGNTHGSFLIRESESTAGSFSLSVRDFDQNQGEVVKHYKIRNLDNGGFYISPRITFPGLHDLVRHYTNASDGLCTKLSRPCQTQKPQKPWWEDEWEVPRETLKLVERLGAGQFGEVWMGYYNGHTKVAVKSLKQGSMSPDAFLAEANLMKQLQHPRLVRLYAVVTQEPIYIITEYMENGSLVDFLKTPSGIKLNVNKLLDMAAQIAEGMAFIEEQNYIHRDLRAANILVSDTLSCKIADFGLARLIEDNEYTAREGAKFPIKWTAPEAINYGTFTIKSDVWSFGILLTEIVTHGRIPYPGMTNPEVIQNLERGYRMVRPDNCPEELYHLMMLCWKERPEDRPTFDYLRSVLDDFFTATEGQYQPQP

The experiment covers variants of B1. Kind of experiment: co-IP of Lck with CD4 from sucrose gradient fractions. The note with it: with Lck (Src kinase) [mouse (endogenous in 58α−β− T cell hybridoma)], mean ± SEM of three independent experiments, read off a plot.
The mark [1] stands for this setting: DRM fractions (center graph), parent: 3.7.
The mark [2] stands for this setting: DSM fractions (right graph), parent: 6.9.
The mark [3] stands for this setting: DRM fractions (center graph), parent: 2.6.
Setting [4] is: DSM fractions (right graph), parent: 8.9.

For the variant chain 1 G377V G380L C392S C395S C418S C420S, the response was 0.85 AUC under setting [1] and 1.2 AUC under setting [2].
Take chain 1 G377V G380L: the response turned out to be 3.5 AUC under setting [1] and 6.4 AUC under setting [2].
For chain 1 S406D L411A L412A S413D, the response is 0.87 AUC under setting [3] and 6.3 AUC under setting [4].
The corresponding values for chain 1 S406D S413D are 1.8 AUC and 8.4 AUC.
In the case of chain 1 C392S C395S, the response runs as follows: under setting [1], 2.1 AUC; under setting [2], 8.9 AUC.
On to chain 1 S406A S413A, for which the response under setting [3] came to 3.2 AUC.
